Results reported in the supplement of paper PMC10126150.
± gives the standard deviation of the averaged measurements.

system: ATP; experiment: switch fluorescence ratio, 500 uM ATP over buffer (Cy3 cluster intensity, sum of 5 cycles each) (fold (ratio)); higher = stronger signal-on switching upon ATP binding; sequences stand for … in TCGTCGGCAGCGTCAGATGTGTATAAGAGACAGTTTTTTTTTTTTTTTTTTTTTTTTT…TC; details: aptamer strand: ATP DNA aptamer (quencher-CACCTGGGGGAGTATTGCGGAGGAAGG + anchor), 100 nM annealed; ATP concentration: 500 uM
How it was run: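 Cy3-labelled switching-strand clusters on a modified Illumina MiSeq flow-cell were annealed to 100 nM quencher-labelled ATP aptamer, imaged in selection buffer, then imaged after 15 min with 500 uM ATP at 22 °C. Five buffer/ATP cycles ran, with NaOH stripping and re-annealing between them. The fluorescence ratio is summed target-cycle over summed buffer-cycle Cy3 intensity per cluster, averaged per switch-domain sequence. Clusters outside 100-1000 RFU were excluded.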
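Also: ATP exposure 15 min at 22 °C before imaging.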

| Sequence | switch fluorescence ratio |
| --- | --- |
| ACCAGGGGGT | 1.05 ± 0.09 |
| ACCAGGTATG | 1.12 ± 0.016 |
| ACCATAGGCT | 1.01 ± 0.055 |
| ACCATCGGGA | 1.01 ± 0.016 |
| ACCATGCCGG | 1 ± 0.077 |
| ACCATGGGAT | 1.02 ± 0.015 |
| ACCATGGGCC | 1.01 ± 0.018 |
| ACCATGTAAG | 0.988 ± 0.035 |
| ACCATTAAAA | 1.004 ± 0.0029 |
| ACCCAGCATC | 1.49 ± 0.025 |
| ACCCAGTGAA | 1.24 ± 0.016 |
| ACCCATAGCG | 1.017 ± 0.0062 |
| ACCCCTGGGC | 1.16 ± 0.041 |
| ACCCGAAGGG | 0.948 ± 0.075 |
| ACCCGAGCAT | 1.79 ± 0.12 |
| ACCCGAGGGA | 1.05 ± 0.05 |
| ACCCGATCTT | 1 ± 0.053 |
| ACCCGCACTT | 1.82 ± 0.24 |
| ACCCGGCACA | 1.21 ± 0.051 |
| ACCCGGGATT | 1.13 ± 0.098 |
| ACCCGTAAGA | 1.22 ± 0.093 |
| ACCCGTACTT | 1.15 ± 0.033 |
| ACCCTTCTGC | 1.15 ± 0.017 |
| ACCGACGCGG | 2.55 ± 0.34 |
| ACCGCACCAA | 1.34 ± 0.051 |

| Sequence | switch fluorescence ratio |
| --- | --- |
| ACCGCATTGT | 1.96 ± 0.23 |
| ACCGCTCAGG | 1.022 ± 0.0093 |
| ACCGCTGGTC | 1.13 ± 0.056 |
| ACCGCTGGTT | 0.97 ± 0.014 |
| ACCGCTTTTT | 1.11 ± 0.024 |
| ACCGGATGG | 1.03 ± 0.027 |
| ACCGGGCGGC | 1.05 ± 0.033 |
| ACCGGGGGTA | 0.991 ± 0.024 |
| ACCGGGTGCA | 1.36 ± 0.48 |
| ACCGGGTGGG | 1.12 ± 0.15 |
| ACCGGGTGTA | 1.3 ± 0.086 |
| ACCGTAGCGG | 1.12 ± 0.023 |
| ACCGTCAGTG | 1 ± 0.015 |
| ACCGTTGGTT | 1.02 ± 0.056 |
| ACCGTTTTTA | 1.08 ± 0.097 |
| ACCTAGCTTC | 1.12 ± 0.05 |
| ACCTCTTATA | 1.05 ± 0.014 |
| ACCTGATGTC | 1.06 ± 0.015 |
| ACCTGGAAAA | 0.999 ± 0.048 |
| ACCTGGATTG | 1.03 ± 0.017 |
| ACCTGGCAAA | 1.09 ± 0.043 |
| ACCTGGGGAT | 1.028 ± 0.0099 |
| ACCTGGGTAC | 1.03 ± 0.055 |
| ACCTGGTGTT | 1.23 ± 0.39 |
| ACCTGTGATC | 1.02 ± 0.026 |

| Sequence | switch fluorescence ratio |
| --- | --- |
| ACCTGTTTGT | 1.01 ± 0.017 |
| ACCTTAAGGG | 1.01 ± 0.015 |
| ACCTTAGGCC | 1.07 ± 0.015 |
| ACCTTCGGGT | 1.03 ± 0.028 |
| ACCTTGTATA | 0.971 ± 0.022 |
| ACCTTTAAGC | 1.106 ± 0.01 |
| ACCTTTTCTT | 1 ± 0.011 |
| ACCTTTTGTG | 0.9903 ± 0.0046 |
| ACCTTTTTTT | 1.17 ± 0.11 |
| ACGAAATTGG | 1.04 ± 0.068 |
| ACGAACAGCG | 1.153 ± 0.004 |
| ACGAATGGTG | 1.02 ± 0.031 |
| ACGAATTGTT | 0.9848 ± 0.0026 |
| ACGACATTTT | 1.084 ± 0.0048 |
| ACGACGTGGG | 1 ± 0.024 |
| ACGAGAAGGG | 1.02 ± 0.043 |
| ACGAGAGATT | 1.42 ± 0.48 |
| ACGAGATTAT | 1.02 ± 0.014 |
| ACGAGGCCGG | 0.952 ± 0.077 |
| ACGAGGCTCA | 1.062 ± 0.0068 |
| ACGAGGGCCA | 1.004 ± 0.0086 |
| ACGATAGGCC | 1.03 ± 0.028 |
| ACGATCAGGA | 1.026 ± 0.0029 |
| ACGATGACAC | 1.289 ± 0.0018 |
| ACGATGGGAG | 1.02 ± 0.021 |

| Sequence | switch fluorescence ratio |
| --- | --- |
| ACGATTAGGG | 0.996 ± 0.08 |
| ACGATTGTGG | 0.983 ± 0.014 |
| ACGCAGGACA | 1.35 ± 0.031 |
| ACGCAGGGGG | 0.989 ± 0.034 |
| ACGCCACTGT | 1.71 ± 0.038 |
| ACGCCATAGT | 1.25 ± 0.059 |
| ACGCCCTCCC | 2.02 ± 1.2 |
| ACGCCTTAGG | 1.05 ± 0.038 |
| ACGCGATTTT | 1.35 ± 0.46 |
| ACGCGGGGGG | 1.02 ± 0.029 |
| ACGCGGTCGG | 1.08 ± 0.044 |
| ACGCGTCAGC | 1.01 ± 0.021 |
| ACGCGTGCGT | 0.988 ± 0.016 |
| ACGCTAGCCT | 1.18 ± 0.032 |
| ACGCTGGCGA | 1.03 ± 0.021 |
| ACGCTTTAGT | 1.01 ± 0.036 |
| ACGCTTTTGG | 1.03 ± 0.023 |
| ACGGAAATTT | 1.021 ± 0.0052 |
| ACGGAATCCT | 1.19 ± 0.018 |
| ACGGAATGTT | 1.0819 ± 0.00046 |
| ACGGACAATC | 1.47 ± 0.099 |
| ACGGACAGTT | 1.13 ± 0.029 |
| ACGGACATGG | 1.08 ± 0.017 |
| ACGGACTGGT | 1.18 ± 0.014 |
| ACGGACTTTG | 0.941 ± 0.063 |
